Measurements reported in paper PMC9940634.

Biological target: T1, HIC2 ZF2-5 (Homo sapiens, UniProt Q96JB3 503-615)
T1 sequence: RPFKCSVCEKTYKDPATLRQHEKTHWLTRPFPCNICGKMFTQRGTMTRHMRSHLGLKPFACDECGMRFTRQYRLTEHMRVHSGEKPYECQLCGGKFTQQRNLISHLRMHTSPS
Assay: X-ray crystallography

B1: +55 enhancer HIC2 motif-2/GATA 16-mer (dsDNA)
DNA 1: AGATAATGCCAACAGT
DNA 2: ACTGTTGGCATTATCT
B1: binds.
